From patent publication US20060024289
Where a chain is given by its changes, count along the chain named. In names and notes the source's numbering stands.

Experiments:
[1] = tested on: extracellular domain of VEGF-R2 (Flk1) fused to the Fc domain of mouse IgG
Ac-RRVR-AMC = tested on: T1, Ac-RRVR-AMC
T1 sequence: RRVR

Ac-IEFD-AMC [2] = biological target: T2, Ac-IEFD-AMC
T2 chain: XIEFDX

Ac-IEPD-AMC [3] = biological target: T3, Ac-IEPD-AMC
T3 chain: XIEPDX

Ac-IEFD-AMC [4] = biological target: T2, Ac-IEFD-AMC; assay: Michaelis-Menten kinetics of fluorogenic tetrapeptide hydrolysis
Ac-IEPD-AMC [5] = biological target: T3, Ac-IEPD-AMC; assay: as above
Ac-IKPD-AMC [6] = biological target: T4, Ac-IKPD-AMC
T4 chain: XIKPDX

Ac-IKPD-AMC [7] = biological target: T4, Ac-IKPD-AMC; assay: Michaelis-Menten kinetics of fluorogenic tetrapeptide hydrolysis
Ac-LEPD-AMC = biological target: T5, Ac-LEPD-AMC
T5 chain: XLEPDX

Ac-IETD-AMC [8] = biological target: T6, Ac-IETD-AMC
T6 chain: XIETDX

Ac-IETD-AMC [9] = biological target: T6, Ac-IETD-AMC; assay: Michaelis-Menten kinetics of fluorogenic tetrapeptide hydrolysis
Ac-IAPD-ACC = biological target: T7, Ac-IAPD-ACC
T7 chain: XIAPDX

Chain of extracellular domain of VEGF-R2 (Flk1) fused to the Fc domain of mouse IgG (chain, as listed by the source): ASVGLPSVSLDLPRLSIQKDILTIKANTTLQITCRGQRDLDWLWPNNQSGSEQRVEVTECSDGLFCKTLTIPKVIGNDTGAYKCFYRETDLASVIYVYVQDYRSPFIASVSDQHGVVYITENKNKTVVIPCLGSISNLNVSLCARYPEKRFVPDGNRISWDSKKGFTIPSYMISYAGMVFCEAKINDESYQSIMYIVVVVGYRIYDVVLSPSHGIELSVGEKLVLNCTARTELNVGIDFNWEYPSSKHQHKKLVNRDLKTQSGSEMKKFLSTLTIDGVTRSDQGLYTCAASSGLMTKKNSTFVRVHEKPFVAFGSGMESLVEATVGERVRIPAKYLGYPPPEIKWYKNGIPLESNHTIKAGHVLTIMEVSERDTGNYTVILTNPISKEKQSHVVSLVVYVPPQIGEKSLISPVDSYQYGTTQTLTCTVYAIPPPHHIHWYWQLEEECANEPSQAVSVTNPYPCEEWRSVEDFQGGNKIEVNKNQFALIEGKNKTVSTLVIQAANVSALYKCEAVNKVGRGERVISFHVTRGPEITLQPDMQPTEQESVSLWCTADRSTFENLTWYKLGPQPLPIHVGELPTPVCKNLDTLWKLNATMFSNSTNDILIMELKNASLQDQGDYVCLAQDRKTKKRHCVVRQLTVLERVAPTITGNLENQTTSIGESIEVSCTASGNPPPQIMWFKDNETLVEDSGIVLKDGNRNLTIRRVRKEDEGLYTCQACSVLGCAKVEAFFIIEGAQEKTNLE

For “granzyme B mutein CB05 (I99A/N218A/K172D)”, the “cleavage of purified VEGFR2-Fc (SDS-PAGE)” value (shortened to “cleavage … (SDS-PAGE)”) [1] was “The purified VEGFR2-Fc is efficiently cleaved by wild-type and mutant granzyme B ... None of the protease variants (wild-type or mutant) cleave the Fc domain” and the “in vitro cleavage of soluble Flk1-Fc (gel, FIG. 10)” value (from here on “in vitro cleavage”) [1] was “Wild-type granzyme B and the listed muteins cleave the VEGFR-Fc receptor”.

In the case of MT-SP1 mutant D217F, the “cleavage … (SDS-PAGE)” value [1] is reported as “Several mutants (N175D and D217F) cleave the receptor with higher efficiency than wild-type”.

MT-SP1 mutein CB155 (Y146D/K224F) was tested, and the “kcat/Km (specificity constant)” value (Ac-RRVR-AMC) was “cut the Ac-RRVR-AMC substrate at 2.2 and 2.3×10^5 M^-1s^-1, respectively”.

In the case of “granzyme B mutein CB02 (I99A/N218A/L171E)”, the “cleavage … (SDS-PAGE)” value [1] is reported as “The purified VEGFR2-Fc is efficiently cleaved by wild-type and mutant granzyme B ... None of the protease variants (wild-type or mutant) cleave the Fc domain” and the “in vitro cleavage” value [1] is reported as “Wild-type granzyme B and the listed muteins cleave the VEGFR-Fc receptor”.

For MT-SP1 mutein CB159 (F99I/L172D/Q175D), the “kcat/Km (specificity constant)” value (Ac-RRVR-AMC) was “cut the Ac-RRVR-AMC substrate at 2.2 and 2.3×10^5 M^-1s^-1, respectively” and the “preference of RRVR over RQAR substrate (ratio of kcat/Km)” value (Ac-RRVR-AMC) was “prefer RRVR to RQAR by greater than 8 fold”.

For MT-SP1 mutein CB18 (L172D), the “cleavage … (SDS-PAGE)” value [1] was “The mutant L172D cleaves full-length VEGFR2 but at a reduced rate compared to the wild-type”.

MT-SP1 mutant N175D was tested, and the “cleavage … (SDS-PAGE)” value [1] was “Several mutants (N175D and D217F) cleave the receptor with higher efficiency than wild-type”.

“granzyme B mutein CB06 (I99A/N218A/Y174E)” was tested, and the “cleavage … (SDS-PAGE)” value [1] was “The purified VEGFR2-Fc is efficiently cleaved by wild-type and mutant granzyme B ... None of the protease variants (wild-type or mutant) cleave the Fc domain” and the “in vitro cleavage” value [1] was “Wild-type granzyme B and the listed muteins cleave the VEGFR-Fc receptor”.

In the case of “granzyme B mutein CB10 (I99A/N218A/R192M)”, the “cleavage … (SDS-PAGE)” value [1] is reported as “The purified VEGFR2-Fc is efficiently cleaved by wild-type and mutant granzyme B ... None of the protease variants (wild-type or mutant) cleave the Fc domain” and the “in vitro cleavage” value [1] is reported as “Wild-type granzyme B and the listed muteins cleave the VEGFR-Fc receptor”.

“granzyme B mutein CB07 (I99A/N218A/Y174D)” was tested, and the “cleavage … (SDS-PAGE)” value [1] was “The purified VEGFR2-Fc is efficiently cleaved by wild-type and mutant granzyme B ... None of the protease variants (wild-type or mutant) cleave the Fc domain” and the “in vitro cleavage” value [1] was “Wild-type granzyme B and the listed muteins cleave the VEGFR-Fc receptor”.

B1: rat granzyme B I99A (protein)
chain: IIGGHEAKPHSRPYMAYLQIMDEYSGSKKCGGFLIREDFVLTAAHCSGSKINVTLGAHNIKEQEKMQQIIPVVKIIPHPAYNSKTASNDIMLLKLKSKAKRSSAVKPLNLPRRNVKVKPGDVCYVAGWGKLGPMGKYSDTLQEVELTVQEDQKCESYLKNYFDKANEICAGDPKIKRASFRGDSGGPLVCKKVAAGIVSYGQNDGSTPRAFTKVSTFLSWIKKTMKKS
Molecule B1 has a kcat (Ac-IEFD-AMC [2]) of 0.24 s⁻¹, a kcat/Km (Ac-IEFD-AMC [2]) of 270 M⁻¹ s⁻¹ and a kcat (Ac-IEPD-AMC [3]) of 0.14 s⁻¹. It also gave a kcat/Km (Ac-IEPD-AMC [3]) of 57 M⁻¹ s⁻¹, a Km (Ac-IEFD-AMC [4]) of 880 µM and a Km (Ac-IEPD-AMC [5]) of 2500 µM.

B2: rat granzyme B Y174A (protein)
chain: B1 chain with A86I, Y161A
Molecule B2 has a kcat (Ac-IEPD-AMC [3]) of 0.87 s⁻¹, a kcat/Km (Ac-IEPD-AMC [3]) of 470 M⁻¹ s⁻¹ and a Km (Ac-IEPD-AMC [5]) of 1000 µM.

B3: rat granzyme B N218A (protein)
chain: B1 chain with A86I, N203A
With B3 the kcat (Ac-IKPD-AMC [6]) was 0.38 s⁻¹, the kcat/Km (Ac-IKPD-AMC [6]) was 220 M⁻¹ s⁻¹ and the kcat (Ac-IEPD-AMC [3]) was 1.6 s⁻¹. The kcat/Km (Ac-IEPD-AMC [3]) was 2200 M⁻¹ s⁻¹, the Km (Ac-IKPD-AMC [7]) was 1800 µM and the Km (Ac-IEPD-AMC [5]) was 700 µM.

B4: rat granzyme B I99F (protein)
chain: B1 chain with A86F
For B4, the Kcat/Km (Ac-LEPD-AMC) was 200 M⁻¹ s⁻¹, the Kcat/Km (Ac-IEFD-AMC [2]) was 410 M⁻¹ s⁻¹ and the Kcat (Ac-IEPD-AMC [3]) was 0.56 s⁻¹. The Kcat/Km (Ac-IEPD-AMC [3]) was 510 M⁻¹ s⁻¹, the “specificity constant (kcat/Km)” value (Ac-IEPD-AMC [3]) was 1100 M⁻¹ s⁻¹ and the Kcat (Ac-IETD-AMC [8]) was 0.3 s⁻¹. For the same molecule, the Kcat/Km (Ac-IETD-AMC [8]) was 153 M⁻¹ s⁻¹, the Km (Ac-IEPD-AMC [5]) was 500 µM and the Km (Ac-IETD-AMC [9]) was 1900 µM.

B5: rat granzyme B I99R (protein)
chain: B1 chain with A86R
B5 was tested, and the Kcat/Km (Ac-LEPD-AMC) was 12 M⁻¹ s⁻¹, the Kcat (Ac-IEFD-AMC [2]) was 0.47 s⁻¹ and the Kcat/Km (Ac-IEFD-AMC [2]) was 505 M⁻¹ s⁻¹. For the same molecule, the Kcat (Ac-IEPD-AMC [3]) was 0.59 s⁻¹, the Kcat/Km (Ac-IEPD-AMC [3]) was 330 M⁻¹ s⁻¹ and the kcat (Ac-IEPD-AMC [3]) was “kcat is 0.47 s^-1 and 0.55 s^-1, respectively”. The Kcat (Ac-IETD-AMC [8]) was 0.3 s⁻¹, the Kcat/Km (Ac-IETD-AMC [8]) was 150 M⁻¹ s⁻¹ and the Km (Ac-IEFD-AMC [4]) was 930 µM and The Km of the P2-Phe substrate (980 µM). For the same molecule, the Km (Ac-IEPD-AMC [5]) was 1800 µM and the Km (Ac-IETD-AMC [9]) was 2000 µM.

B6: rat granzyme B N218T (protein)
chain: B1 chain with A86I, N203T
Work on B6 yielded a Kcat (Ac-IKPD-AMC [6]) of 1.1 s⁻¹, a Kcat/Km (Ac-IKPD-AMC [6]) of 600 M⁻¹ s⁻¹ and a Kcat (Ac-IEPD-AMC [3]) of 3.6 s⁻¹. It also gave a Kcat/Km (Ac-IEPD-AMC [3]) of 6200 M⁻¹ s⁻¹, a Km (Ac-IKPD-AMC [7]) of 1800 µM and a Km (Ac-IEPD-AMC [5]) of 580 µM.

B7: rat granzyme B N218A/R192A (protein)
chain: B1 chain with A86I, R181A, N203A
B7 gave a Kcat/Km (Ac-IKPD-AMC [6]) of 55 M⁻¹ s⁻¹, a Kcat/Km (Ac-IAPD-ACC) of 29 M⁻¹ s⁻¹ and a Kcat (Ac-IEPD-AMC [3]) of 0.16 s⁻¹. For the same molecule, the Kcat/Km (Ac-IEPD-AMC [3]) was 92 M⁻¹ s⁻¹, the Km (Ac-IKPD-AMC [7]) was > 2000 µM and the Km (Ac-IEPD-AMC [5]) was 1700 µM.

B8: rat granzyme B N218A/R192E (protein)
chain: B1 chain with A86I, R181E, N203A
B8 showed a Kcat/Km (Ac-IKPD-AMC [6]) of 73 M⁻¹ s⁻¹, a Kcat/Km (Ac-IAPD-ACC) of 15 M⁻¹ s⁻¹ and a Kcat/Km (Ac-IEPD-AMC [3]) of 10 M⁻¹ s⁻¹. The Km (Ac-IKPD-AMC [7]) was > 2000 µM and the Km (Ac-IEPD-AMC [5]) was > 2000 µM.
